Bridges are numbered along the chain shown (N, C = ends). Where no end group is shown, it is not given here. [ ]: non-standard residue; d: D form. hCys = N[C@@H](CCS)C(=O)O; Orn = NCCC[C@H](N)C(=O)O; Dab = NCC[C@H](N)C(=O)O
Target: TEAD
Assay: IC50 for TEAD binding (TR-FRET test)

TEAD, sequence (P28347 209-426): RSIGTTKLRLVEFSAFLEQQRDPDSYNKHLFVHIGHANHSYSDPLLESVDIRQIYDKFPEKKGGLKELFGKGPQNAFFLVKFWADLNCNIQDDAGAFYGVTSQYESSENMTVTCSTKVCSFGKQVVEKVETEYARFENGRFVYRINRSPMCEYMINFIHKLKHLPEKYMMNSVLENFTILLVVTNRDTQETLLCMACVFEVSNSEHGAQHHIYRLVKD

Binder	IC50
VPF[hCys]LR[Dab]LPDSFCKPPE (disulfide 4-13) [polypeptide represented by SEQ ID NO.: 6]	28 nM
VPF[hCys]LR[Orn]LPDSFCKPPE (disulfide 4-13) [polypeptide represented by SEQ ID NO.: 5]	43 nM

From patent publication US20160272690A1
